{"source": "patent US20090305963A1", "about": "“Lipocalin 2 for the Treatment, Prevention, and Management of Cancer Metastasis, Angiogenesis, and Fibrosis” (priority 2005, published 2009)", "molecules": {"B1": {"name": "lipocalin 2: human lipocalin 2 cDNA (HA tagged) in pcDNA3.1, stably expressed in 4T1-ras cells (RL clone); iron-siderophore binding protein (protein, UniProt P80188 21-198, looked up)", "Neutrophil …": "QDSTSDLIPAPPLSKVPLQQNFQDNQFQGKWYVVGLAGNAILREDKDPQKMYATIYELKEDKSYNVTSVLFRKKKCDYWIRTFVPGCQPGEFTLGNIKSYPGLTSYLVRVVSTNYNQHAMVFFKKVSQNREYFKITLYGRTKELTSELKENFIRFSKSLGLPENHIVFPVPIDQCIDG", "modifications": "HA tag"}}, "key": {"[1]": {"tested_on": "E-cadherin mRNA", "assay": "E-cadherin mRNA by semi-quantitative RT-PCR", "assay_type": "cell-based, mouse", "conditions": "EV, R and RL cells in vitro", "description": "Total RNA was isolated from 4T1 cells in vitro using the SV Total RNA Isolation system (Promega, Madison, Wis.). Tissue RNA was collected with TRIzol® (GibcoBRL, Gaithersburg, Md.). RT-PCR was performed on the Perkin Elmer GeneAmp PCR system 2400 using Omniscript (Qiagen, Valencia, Calif.) for reverse transcription reaction, and Taq DNA polymerase (Qiagen) and primers for mouse E-cadherin (5′-[…]-3′ and 5′-[…]-3′, SEQ ID NO: 5), GAPDH (5′-ACAGTCTTCTGAGTGGCA-3′, SEQ ID NO: 6, and 5′-CCCATCACCATCTTCCAG-3′, SEQ ID NO: 7) and HA-tagged lipocalin 2 (5′-GGAGTACTTCAAGATCAC-3′, SEQ ID NO: 8 and 5′-[…]-3′, SEQ ID NO: 9) for DNA amplification. The PCR conditions were established for DNA amplification in the linear range. RT-PCR products were analyzed on 1% agarose gels."}, "[2]": {"tested_on": "VEGF", "assay": "Measurement of VEGF levels by ELISA in conditioned media of 4T1 cells", "assay_type": "cell-based, mouse", "conditions": "RL vs R cells; conditioned media, 2 days", "description": "Conditioned media of 4T1 cells were collected after 2 days of incubation. Murine VEGF levels were determined in duplicate using a commercially available sandwich ELISA kit (R&D Systems, Minneapolis, Minn.), with a affinity purified polyclonal antibody specific for mouse VEGF has been pre-coated onto a microplate. Results were compared with a standard curve of mouse VEGF with a lower detection limit of 7 pg/mL. A model 680 microplate-reader (Bio-Rad Laboratories, CA) was used to measure light intensity correlating with VEGF binding."}, "[3]": {"tested_on": "4T1 primary tumor", "assay": "Western blot of total cell lysate from 4T1 primary tumors", "assay_type": "in vivo, Balb/c mice", "description": "4T1 clones (EV, R and RL) were suspended in PBS and injected subcutaneously in the backs of Balb/c mice. 3 weeks later, primary tumor tissue was dissected, homogenized and the supernatant fluid was collected as total cell lysate. Western blot of total cell lysate from each primary tumor for the antigen is shown. GAPDH serves as a loading control. The E-cadherin, vimentin and GAPDH data is from Hanai et al., J. Biol. Chem. 280:13641-13647 (2005).\n(§1) Cells were stained as described previously (Mammoto et al., Cancer Lett. 184:165-170, 2002) and images acquired with a Delta Vision system (Applied Precision, Issaquah, Wash.) equipped with an Axiovert 100 microscope (Carl Zeiss MicroImaging Inc., Shelton, Conn.) and a Photometrics 300 series scientific-grade cooled CCD camera, reading 12-bit images, and using the 63/1.4 NA plan-Neofluar objective. For immunoprecipitation and immunoblotting, tissues were weighed, diced, soaked in ice cold RIPA buffer with 1 mM phenylmethylsulfonyl fluoride (PMSF), 1 μg/ml Aprotinin, 1 mM Na3VO4, 1 nM NaF, homogenized on ice, centrifuged at 10,000 g for 10 minutes at 4° C., and the supernatant fluid collected as total cell lysate. Cultured cells were washed, scraped, and solubilized in a lysis buffer containing 20 mM Tris-HCl pH 7.5, 150 mM NaCl, 0.5% Triton X-100, 1% aprotinin, and 1 mM PMSF. After 20 minutes on ice, the cells were pelleted by centrifugation and the supernatants were used as a cell lysate. Cell lysates or immunoprecipitated cell lysates were separated by PAGE (NuPAGE® gels; Invitrogen, Carlsbad, Calif.), followed by electroblotting onto a polyvinylidenedifluoride membrane (PVDF). Protein bands were detected using SuperSignal® West Pico Chemiluminescent Substrate (Pierce Chemical Co., Rockford, Ill.) (Hanai et al., J. Cell. Biol. 158:529-539, 2002).\nTo determine whether lipocalin 2 could affect expression of anti-angiogenic factors in vivo, we injected EV, R, or RL cells subcutaneously in the backs of Balb/c mice and dissected the primary tumors at 3 weeks post-inoculation. As shown above and in Hanai et al., supra, E-cadherin and vimentin protein expression varied reciprocally in the three tumor types. We assessed the expression of VEGF and thrombospondin-1 (TSP-1) by western blot in each tumor tissue."}, "[4]": {"tested_on": "4T1 cells injected subcutaneously", "assay": "In vivo assay for primary tumor growth and pulmonary metastases", "set-up": "species or system Balb/c mice", "description": "FIG. 4A is a graph showing the effect of lipocalin 2 on 4T1 primary tumor growth. 4T1 clones (EV, R, and RL) were suspended in PBS and injected subcutaneously in the backs of Balb/c mice. Primary tumor size was calculated based upon measurements at 1, 2, and 3 weeks. […] FIGS. 4E-F show graphs depicting the lung weight (FIG. 4E) and the number of metastatic nodules on the lung surface (FIG. 4F).\n10^7 4T1-(EV, R, and RL) cells were injected subcutaneously in Balb/c mice (Asai et al., Int. J. Cancer. 76:418-422, 1998). Though this model is not the standard orthotopic model used, we have used it extensively in our laboratory to study metastases in lung. Primary tumor volume (V)=a·b·b/2, where a represents the […] tumor diameter. After 3 weeks, lung weights and the number of metastatic nodules on the lung surface were evaluated."}, "[5]": {"tested_on": "E-cadherin", "assay": "EMT phenotype, E-cadherin and vimentin protein in 4T1 clones (microscopy, western blot)", "assay_type": "cell-based, mouse", "conditions": "RL cells compared to R cells", "description": "as §1\nTo assess the effects of lipocalin 2 on ras-mediated transformation, we chose a syngeneic spontaneously metastasizing murine breast cancer model (4T1 cell line) and accelerated its metastatic potential by introduction of constitutively active mouse H-ras mutant A12 using retrovirus. […] We generated stable clones of 4T1-ras cells expressing lipocalin 2 (RL) by transfection of a lipocalin 2 expression plasmid (lipocalin 2-pcDNA3.1). […] (FIG. 2A, lower panel, and FIG. 2B). […] Expression of E-cadherin in RL cells was dependent on the dose of lipocalin 2-pcDNA3.1 expression vector (transiently introduced in a population of R cells), on a conditioned medium containing lipocalin 2 (FIGS. 2D-E), as well as on recombinant lipocalin 2 protein. R cells shown in FIG. 2D were seeded in a 6-well plate and transfected with lipocalin 2 by FuGene 6 at 40% confluency. After 48 hours, cells were trypsinized, respread on 6-well plate, and transfected again in the same conditions. After 72 hours, cells were harvested and analyzed by western blotting. EV cells in FIG. 2E were seeded in a 6-well plate with 1 ml/well containing 10% FCS with DMEM and 2 ml of CM was added at 10% confluency. After 72 hours, cells were harvested and analyzed by western blotting. CM is a mixture of media from 293T cells transfected with lipocalin 2 and from 293 cells transfected with empty vector (pcDNA3.1)."}}, "data": [{"molecule": "B1", "values": [{"measurement": "E-cadherin mRNA", "setting": "[1]", "result": "remained unchanged"}, {"measurement": "suppression of ras-induced VEGF secretion", "setting": "[2]", "result": "≈ 7.5 fold"}, {"measurement": "E-cadherin in primary tumors", "setting": "[3]; RL tumors vs R", "result": "more E-cadherin"}, {"measurement": "vimentin in primary tumors", "setting": "[3]; RL tumors vs R", "result": "less vimentin"}, {"measurement": "TSP-1 protein in primary tumors", "setting": "[3]; RL vs R and EV tumors, 3 weeks post-inoculation", "result": "returned in RL cells to the levels noted in EV cells"}, {"measurement": "ras-induced increase of VEGF protein in primary tumors", "setting": "[3]; RL vs R tumors, 3 weeks post-inoculation", "result": "completely abrogated"}, {"measurement": "primary tumor size", "setting": "[4]; R vs RL tumors, 1, 2 and 3 weeks post-inoculation", "result": "Primary tumors of R cells were significantly larger than lipocalin 2 cells"}, {"measurement": "reduction of number of metastatic pulmonary nodules", "setting": "[4]; RL cells compared to R cells, 3 weeks after s.c. injection", "result": 80, "unit": "%"}, {"measurement": "lung weight", "setting": "[4]; RL compared to R cells, 3 weeks", "result": "lung weights were less"}, {"measurement": "E-cadherin expression", "setting": "[5]", "result": "re-expressed E-cadherin"}, {"measurement": "cell morphology", "setting": "[5]", "result": "reverted to an epithelial morphology"}, {"measurement": "vimentin expression", "setting": "[5]", "result": "suppressed the expression of mesenchymal vimentin"}]}]}
